Assay results as given in paper PMC8464079.
Positions count from the first letter of the chain named.

Experiments:
Assay in all cases: fluorescence polarization
[1] = target: T1, MUT-8G (Caenorhabditis elegans, UniProt Q09487 172-535, N472S;Y473N;Q476E)
T1 sequence: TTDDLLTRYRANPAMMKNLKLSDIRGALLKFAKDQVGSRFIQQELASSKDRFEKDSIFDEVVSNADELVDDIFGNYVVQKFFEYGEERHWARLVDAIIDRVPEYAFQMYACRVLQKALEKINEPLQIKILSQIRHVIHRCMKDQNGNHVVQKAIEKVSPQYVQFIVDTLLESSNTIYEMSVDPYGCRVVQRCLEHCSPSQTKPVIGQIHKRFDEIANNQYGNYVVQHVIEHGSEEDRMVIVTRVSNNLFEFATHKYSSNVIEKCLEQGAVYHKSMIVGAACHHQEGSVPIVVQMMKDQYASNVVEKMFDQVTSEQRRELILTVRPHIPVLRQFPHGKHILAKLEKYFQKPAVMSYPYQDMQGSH

[2] = target: T2, MUT-#13 (K513R) (Caenorhabditis elegans, UniProt Q09487 172-535, K513R)
T2 sequence: T1 sequence with S301N, N302Y, E305Q, K342R

[3] = target: T3, MUT-4A (Caenorhabditis elegans, UniProt Q09487 172-535, N318C;H319R)
T3 sequence: T1 sequence with N147C, H148R, S301N, N302Y, E305Q

[4] = target: T4, MUT-#14 (Q476A/K513A) (Caenorhabditis elegans, UniProt Q09487 172-535, Q476A;K513A)
T4 sequence: T1 sequence with S301N, N302Y, E305A, K342A

[5] = target: T5, MUT-4C (Caenorhabditis elegans, UniProt Q09487 172-535, N318C;H319Y;Q322R)
T5 sequence: T1 sequence with N147C, H148Y, Q151R, S301N, N302Y, E305Q

[6] = target: T6, PUF-8 WT (FP) (Caenorhabditis elegans, UniProt Q09487 172-535)
T6 sequence: T1 sequence with S301N, N302Y, E305Q

UGUAAAUA (ssRNA) [PBE-5A FAM]
binding result [1]: no binding
Kd [2]: 60 ± 13.2 nM
Kd [3]: 0.44 ± 0.39 nM
Kd [4]: 210 ± 27.4 nM
Kd [5]: 16.3 ± 4.64 nM
Kd [6]: 2.49 ± 1.5 nM
